These results are taken from article PMC7458460 (Science Advances, 2020).

The target in this assay is CN391 (CNA_(1–391)/CNB_(1–170)) (UniProt Q08209 1-391; P63098 1-170). Description: ITC.
Sequence of CN391 (CNA_(1–391)/CNB_(1–170)) (Q08209 1-391, chain 1 of 2): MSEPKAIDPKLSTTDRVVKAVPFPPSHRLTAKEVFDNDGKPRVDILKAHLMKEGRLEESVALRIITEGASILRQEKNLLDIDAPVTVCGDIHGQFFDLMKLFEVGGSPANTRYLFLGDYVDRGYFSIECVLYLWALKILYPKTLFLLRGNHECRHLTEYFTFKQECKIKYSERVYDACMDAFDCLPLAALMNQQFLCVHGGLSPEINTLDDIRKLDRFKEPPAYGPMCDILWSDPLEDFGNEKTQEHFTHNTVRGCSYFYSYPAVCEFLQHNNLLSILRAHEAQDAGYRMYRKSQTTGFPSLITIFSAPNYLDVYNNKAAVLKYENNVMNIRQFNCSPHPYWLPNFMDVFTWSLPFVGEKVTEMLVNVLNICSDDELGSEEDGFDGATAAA
Sequence of CN391 (CNA_(1–391)/CNB_(1–170)) (P63098 whole entry, chain 2 of 2): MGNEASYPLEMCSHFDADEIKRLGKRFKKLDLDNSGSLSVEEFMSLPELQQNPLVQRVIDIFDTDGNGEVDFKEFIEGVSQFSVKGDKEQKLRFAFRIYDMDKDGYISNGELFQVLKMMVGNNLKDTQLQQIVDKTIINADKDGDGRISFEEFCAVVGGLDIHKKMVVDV

B1: RCAN1 CN-binding domain (residues 89 to 197) (domain or fragment)
chain: not shown
By Kd is commonly meant a measure of binding affinity in units of concentration. Lower therefore signals a tighter complex. For B1, binding was put at a Kd of 16 ± 5 nM and the dH is -30.7 ± 0.8 kcal/mol.

B2: p38-phosphorylated RCAN1 (residues 89 to 197) (domain or fragment)
chain: not shown
modifications: pS108, pS112, pT124, pT153, pT192 (pT152 partially, much more slowly)
In turn, B2 gave a dissociation constant Kd of 429 ± 85 nM and a dH of -32.4 ± 1.6 kcal/mol.
